Measured values: publication PMC6448596 (Cell reports, 2019)

Target: His-SUMO-WDR5(22–334) (human, UniProt P61964 22-334)
Experiment: AlphaScreen or HTRF

ARTEVHLRKS [10-mer-Thr-FAM (ARTEVHLRKS-(Ahx-Ahx)(Lys-(5-FAM)))]
binding result: binds
